T1: GST::ETS-5 (Caenorhabditis elegans, UniProt Q18579 1-208)
T1 sequence: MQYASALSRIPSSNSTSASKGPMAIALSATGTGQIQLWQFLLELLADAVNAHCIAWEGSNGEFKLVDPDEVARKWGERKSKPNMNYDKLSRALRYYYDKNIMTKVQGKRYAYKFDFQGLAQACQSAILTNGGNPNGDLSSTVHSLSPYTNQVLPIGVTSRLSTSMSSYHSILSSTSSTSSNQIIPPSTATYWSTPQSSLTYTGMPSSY

B1: gcy-9 promoter ETS-site probe (45 bp) (dsDNA)
DNA 1: ATCCACTTCCGATGGGCCCTTCCGGCATGATAAGAAGTGAGTGGC
DNA 2: GCCACTCACTTCTTATCATGCCGGAAGGGCCCATCGGAAGTGGAT
B2: scrambled competitor (dsDNA)
DNA 1: CTGACCCCGTGTCGCTAATAGACTCAGTTACGCAAGATGG
DNA 2: CCATCTTGCGTAACTGAGTCTATTAGCGACACGGGGTCAG

Columns and labels:
GST::ETS-5 [1] = molecular target: T1, GST::ETS-5; experiment: EMSA; also blocked by excess unlabeled probe (10-500x); EMSA: 1 ug GST::ETS-5 or 2 ug GST, 0.1 pmol 3'-biotin duplex, room temperature 20 min, 6% polyacrylamide gel in 0.5x TBE; binding buffer, salt and pH not stated; conditions: protein: recombinant; tags: N-terminal GST (pGEX); label: 3'-biotin (labeled probe); blunt
GST::ETS-5 [2] = molecular target: T1, GST::ETS-5; experiment: competition; scrambled competitor 10-500x molar excess over labeled N1; did not block; EMSA: 1 ug GST::ETS-5 or 2 ug GST, 0.1 pmol 3'-biotin duplex, room temperature 20 min, 6% polyacrylamide gel in 0.5x TBE; binding buffer, salt and pH not stated; conditions: protein: recombinant; tags: N-terminal GST (pGEX); label: unlabeled; blunt

| Binder | binding result (GST::ETS-5 [1]) | binding result (GST::ETS-5 [2]) |
| --- | --- | --- |
| B1 | binds |  |
| B2 |  | no binding |
